Experimental data published in article PMC4100735.

Target: TNF receptor-associated factor 2 (TRAF2) (human (endogenous in HEK-293T)) (UniProt Q12933)
Test: co-IP; lysates of HEK-293T cells transfected with Tyr52 or Cys52 FBXO7-EGFP and treated with MG-132 (5 uM, 24 h); 100 ug protein immunoprecipitated with mouse anti-TRAF2 antibody on protein G beads in IP lysis buffer (25 mM Tris-HCl pH 7.4, 150 mM NaCl, 1% NP-40, 1 mM EDTA, 5% glycerol); blot with anti-EGFP; normal IgG as negative control

Sequence of UniProt Q12933 (Q12933 whole entry): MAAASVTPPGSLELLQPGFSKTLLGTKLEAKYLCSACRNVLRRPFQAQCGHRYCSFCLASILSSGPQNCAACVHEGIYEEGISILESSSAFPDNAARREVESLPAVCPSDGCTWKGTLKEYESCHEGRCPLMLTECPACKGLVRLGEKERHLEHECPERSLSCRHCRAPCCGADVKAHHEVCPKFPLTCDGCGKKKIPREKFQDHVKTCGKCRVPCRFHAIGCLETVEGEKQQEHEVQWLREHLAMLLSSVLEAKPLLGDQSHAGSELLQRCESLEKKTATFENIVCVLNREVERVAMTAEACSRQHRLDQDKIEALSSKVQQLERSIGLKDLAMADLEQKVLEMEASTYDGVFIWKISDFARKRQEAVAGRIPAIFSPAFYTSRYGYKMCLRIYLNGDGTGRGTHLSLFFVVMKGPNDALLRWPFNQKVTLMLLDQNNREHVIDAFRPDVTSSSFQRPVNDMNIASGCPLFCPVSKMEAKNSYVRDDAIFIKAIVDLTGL

FBXO7-TRAF2 interaction in co-IP, percent of Tyr52 FBXO7-EGFP: 367%
Substance: Cys52 FBXO7-EGFP (F-box only protein 7 Y52C variant, isoform 1, EGFP-tagged) (from UniProt Q9Y3I1-1 1-522) (natural protein)
